Reference: the MegaScale stability set (Tsuboyama et al. 2023)

B1: EEHEE_rd4_0469 (parent)
chain: ITIHVNGVTYHFDNPEEAEKFAQKMAKTYQLKMEIHNGEFHME

Variants of: B1
Assay: folding stability dG (cDNA display proteolysis); higher = more stable
Details: PBS, room temperature

Folding stability dG [kcal/mol]: each site, then its substitutions
G38: I 0.832, D 0.717, W 0.914, M 0.798
P15: E 0.979, D 0.883, L 1.35, N 0.994, Y 1.36, M 1.5, F 1.39, R 1.34, K 1.17
L31: R 0.214, S 0.767, T 0.775, A 0.799, D 1.3, P 1.13
H41: E 0.697, K 0.756, W 1.57, N 0.659, F 1.55, M 0.892, A 0.623, I 1.08, L 0.929
H11: Y 1.18, T 1.07, G 0.636, Q 1.01, A 1.02, M 1.03, P 0.279, I 1.04, D 0.692
E39: P 0.802, A 1.02, C 1.69, R 0.762, T 0.836, I 1.17, H 1.16, W 0.978, Q 1.11
I1: H 0.725, S 0.683, N 0.57, K 0.846, T 0.826, F 1.08, L 0.959, Y 1.16, C 1.65, R 1.01
D13: W 1.23, N 1.13, P 1.17, A 1.2, F 1.15, S 1.26, R 1.15, Q 1.11, G 1.11, C 1.81
T9: A 1.39, E 0.827, P 1.51, W 0.84, K 1.51, Q 1.27
N6: Q 1.26, D 1.11, T 1, M 1.73, F 2.18, R 1.27
N14: Y 0.849, P 0.129, E 0.901, R 1.09, W 1.05, H 0.946, S 1.07, L 1.18
I3: G 0.58, F 0.925, V 1.35, T 0.127, C 1.55, M 0.706, Q -0.059, S -0.094, P -0.854, N -0.377
Y29: I 0.788, M 0.899, T 1.05, D 1.59, E 1.6, V 0.848
A26: R 1.1, S 1.04, K 1.01, H 0.851, E 1.12, M 1.46, V 0.794, D 0.963
I35: V 1.03, G 0.722, D 0.68, R 0.522, Q 0.822, M 0.949, N 0.687
H4: G 0.633, E 0.692, P 0.265, D 0.586, S 0.684, A 0.76, C 1.77, V 0.899
Q30: H 1.43, F 1.14, D 1.08, W 1.11, K 1.12, A 1.02
H36: A 0.796, I 1.66, N 0.903, W 1.24, D 0.709, Y 1.26, F 1.19, T 0.926, V 1.35, K 1.28, R 1.49
V8: T 1.12, K 1.38, L 1.19, E 1.09, Y 1.29, H 1.11, I 1.13
K20: S 1.15, Y 1.09, T 1.19, V 1.17, I 1.18, N 1.02, W 1.02, R 1.17, M 1.15, H 1.15, D 1.03, Q 1.17
M33: N 0.297, K -0.407, W 1.36, H 0.293, A 0.574, P 0.368, F 1.18
E17: D 1.06, Q 1.03, H 0.948, M 1.07, A 1.15, R 1.07
A18: H 0.114, K 0.431, D -0.444, C 1.56, V 0.798, N -0.125, T 0.325
T28: D 1.87, W 1.95, F 1.67, R 1.65, N 1.24, S 0.87, Y 1.91, P 0.094
E19: T 1.3, G 1.03, Q 1.26, F 1.63, D 1.07, R 1.41
F21: T -0.122, C 1.38, I 0.089, Q -0.188, D -0.653, E -0.052, K -0.758, W 1.2
A22: S 0.704, I 1.46, Q 0.662, M 1.19, L 0.879, F 0.747, T 0.747
K27: W 1.38, D 1.5, Q 1.24, V 1.22, N 0.922, I 1.34, E 1.51, R 1.09, S 1
Y10: R 0.338, I 0.806, S -0.597, A 0.111, V 0.557, M 0.573, T 0.067, K 0.307
K32: H 1.48, I 1.66, R 0.848, V 1.62, N 1.28, P 1.09, Q 1.45
G7: P -0.022, H 1.13, I 2.4, D 0.859, E 0.803, N 1.07, Y 1.26, K 1
T2: A 0.989, L 1.25, P 0.663, C 1.72, N 1.17, R 1.46, F 1.42, Y 1.36
F12: Q -0.822, G -0.935, S -0.408, P -0.616, T -0.211, L 0.299, W 0.481
M25: T 0.301, C 1.66, D -0.066, N 0.081, E 0.109
V5: Q 0.252, P -0.199, G 0.398, F 1.24, E 0.203, A 0.938, T 0.534
K24: R 1.31, Y 2.27, S 0.939, Q 1.2, V 1.29, N 0.976, G 0.646, H 1.51, F 1.99
N37: T 0.767, V 0.9, F 1.19, Q 0.88, A 0.861, E 0.831, W 1.17, R 0.716, H 1.11
E16: P 0.698, L 1.19, H 1.14, Y 1.19, M 1.15, K 1.18, C 1.77, Q 1.1, F 1.2, W 1.16
M42: I 0.961, P 0.756, Q 0.661, N 0.637, F 1.24, V 0.797, T 0.657, G 0.673
E34: G 0.776, N 1.06, M 1.33, Y 1.78, K 1.17, I 1.67, S 1.28, P 0.209
E43: N 1.17, D 0.889, C 2.31, F 2.01, R 1.56, M 1.69
Q23: R 1.35, I 1.27, C 2.52
F40: D 0.578, T 0.801, W 1.76, Q 0.754, Y 1.31, G 0.641, I 1.6, R 0.623, V 1.19, E 0.603, A 0.744, M 1.23
